Laboratory results published in patent publication US20260091068A1, “METHODS FOR TREATING AND PREVENTING DISEASES” (priority 2017, published 2026).

System: Bacteriophages of E. coli
Experiment: Inactivation of bacteriophages by nucleases and proteases, titer by Gratia's method (Example 22)
Type: cell-based
Settings: E. coli phage treated with 10 mcg/ml enzyme for 30 min
Protocol: As a control, when the original phage is added back, the titer increases.

B1: Proteinase K: Proteinase K (Promega) (protein, UniProt P06873 106-384, looked up)
Proteinase K: AAQTNAPWGLARISSTSPGTSTYYYDESAGQGSCVYVIDTGIEASHPEFEGRAQMVKTYYYSSRDGNGHGTHCAGTVGSRTYGVAKKTQLFGVKVLDDNGSGQYSTIIAGMDFVASDKNNRNCPKGVVASLSLGGGYSSSVNSAAARLQSSGVMVAVAAGNNNADARNYSPASEPSVCTVGASDRYDRRSSFSNYGSVLDIFGPGTSILSTWIGGSTRSISGTSMATPHVAGLAAYLMTLGKTTAASACRYIADTANKGDLSNIPFGTVNLLAYNNYQA
B1 was tested, and the “Phage titer (by Gratia's method)” value was 6 × 10^4.
